Reference: the DeepSol protein solubility set

assay: soluble on expression in E. coli; label from the status in PepcDB or PDB records

Sequence	soluble on expression in E. coli
MGSDKIHHHHHHMNKKFLLTGASGFVGKHLYSINPSQFRCVVREDGERFPDAYKVNGINSKTDWTDSFLDIDCIIHLAGLAHSNNNRNDEYRETNFLGTLCLAQQASKSGVKRFVFVSSIGVNGNATLEKPFSIFDEPKPLNSYTNSKYDAEIGLKKIAAETGLEVVIVRPTLVYGPNAPGNFGLLTKLVKKLPVLPFGLANNKRDFIAVQNLADLLITCATHPNAAGHMFLASDMETVSIKQFTNAIADGLGKKVFQFPIPVSLMRLTGKLMRKSAMVEQLLGNLQVDSSNIKEVLDWTPPLTMKQAMTTLCDSGKSS	not soluble
QLVLTQSSSASFSLGASAKLTCTLSSQHSTYTIEWYQQQPLKPPKYVMDLKQDGSHSTGDGIPDRFSGSSSGADRYLSISNIQPEDEAMYICGVGDTIKEQFVYVFGGGTKVTVLGEPKSTPTLTVFPPSSEELKENKATLVCLISNFSPSGVTVAWKANGTPITQGVDTSNPTKEGNKFMASSFLHLTSDQWRSHNSFTCQVTHEGDTVEKSLSPAECL	soluble
MSLTLDVWQHIRQEAKELAENEPMLASFFHSTILKHQNLGGALSYLLANKLANPIMPAISLREIIEEAYQSNPSIIDCAACDIQAVRHRDPAVELWSTPLLYLKGFHAIQSYRITHYLWNQNRKSLALYLQNQISVAFDVDIHPAAKIGHGIMFDHATGIVVGETSVIENDVSILQGVTLGGTGKESGDRHPKVREGVMIGAGAKILGNIEVGKYAKIGANSVVLNPVPEYATAAGVPARIVSQDKAAKPAFDMNQYFIGIDDGMNLNEGGSHHHHHH	soluble
MKLEFNLIIAGVGGQGGLTLSRIIGNAAMIEGYRVRIGETLGMSQRYGSVLSYLRFGEEVYSPLIEEGKADLMLALEPVEALRNARFLSRKSYAIINAYPIHTATTLVGKERYPDLEEIKEAIGKICRVEMRNFQEEADKINPRTLGVLMTGFAWRKGLLPLKKESIIEGIKLTLREKLWDINFRAFERGVELASL	soluble
MSLRPNHAAQSLRSRTSKTIGCMFSDVANPLYARAFRALEEHFRREGYMLLLANGLNDAEREIDIIQTFQLRGMDGVILAPGNERHPGVLDAVRRLSMPAVIYDRDLAVDADAVLFDHVAGVKAAIHHLVELGHTRIALALWQVKSRPVRRRIEGYKAAFKAAGLPVPDLILQEPTPTSSAFDDVTRLLQLPDPPTAFLAQGTHTLTSTLRAIAKQGLRVPEDVSVIGIGDTDFAQTYDPPLTVLRTPTDEVAAHAVEMLLSRLAAKGDASLSPRKALIQFDLILRESCAPVAREGHHHHHH	soluble
MEIGDVSTGYLEDALIEFSGRSKRRRLSFNGAEDKPDNDLDHSQNHWGLSENYSCTSSQFAEKNDYDEKKRVVYPFGVVKPGGREEDITLNDINKRILMPSARPVRHPVGDFACRPCVSADGPGLSGKAVVAFTKIQTLGRGTITIIRTKG	soluble
MKFWKKGLTAAALLAVAAVTLTACGGSSEKKATEKSEDGKTKLTVTTWNYDTTPEFEKLFRAFEAENPDITIEPVDIASDDYDTKVTTMLSSGDTTDILTMKNLLSYSNYALRNQLVDLTDHVKDLDIEPAKASYEMYEIDGKTYAQPYRTDFWVLYYNKKMFDEAGIAYPDNLTWDEYEALAKKLSKPEEQVYGAYQHTWRSTVQAIAAAQNNANLIEPKYNYMETYYDRALRMQKDQSQMDFGTAKSTKVTYQSQFENSKAAMMYMGSWYMGTLLTNIDDGKTNVEWGIAEIPQQEKGKATTFGSPTSFAINKNSKKQKAAQKFLDFASGKEGAKLLAEVGVVPSYKTDEIDKIYFARKGMPSDEVSQKAFNPDTINLEFPSDKNGAAIDKVLQEEHDLIMVGDEKPKDGIANMEKRVKAEID	not soluble
MAHHHHHHMRTSPLWRLRMTSRPLSLERVFVINLDRRPDRWAAIQAVCARAGLPAERTERVPAVEGSRLDVNAVHHCGFVSALGLRRLKEPPEHHIWGMDLNKAALGCALSHIHLWARIAALGKVSNISAEAPAATLPKQCFLVLEDDSTFADSDDNGSDSPAASPSLPFLDQLQRRMNSVPPDWELVYVSGLDTAKQCLHMQVAKGVARVPQYHRTTNAYLVTPQGARRLLATCVPLTFQLDTAMTMNVGYPPGVVGVAGAQTLPHVLDPVCYTLQPPLMQQAAQLDTDIQH	soluble
MGSDKIHHHHHHMKSKANQSQGLLLFRLSQHQIFALGTLKIRELVPYTPLSKIPQSHPTILGAATIRGHTIPVVDMAAAIGYRPVSDEERQHCYIIITDCQRMIIGFLVRAIDKIIECNWRDIEAPSANLGKNAFLTGVTRYDNQLVQLLDVELLLSKVFPDAPEANRAILTDVQREKLKPRRILLVDDSKVARKQLSDALDSINIPYFVTPDGREALSIMEQAAAEHHPIDILVSDIEMPGLDGYELAFEVRDNPLLANAYIILHTSLSSEISVSQAHQVGANEALTKFDAHELVEAMLRGAELAAKRAN	not soluble
MHILVTGAAGFIGSHTVLELLNSGYTVLCIDNFANAISDEHGNAISLKRVAQLTGKDVPFQNVDVCDEAALEKVFSENKFDGIIHLAALKAVGESVAKPLQYYSNNLVASLNLIQMCLKYNVKNFVFSSSATVYGPPSELPITEKSQTGQGITNPYGQTKYMMEQILIDVGKANPEWNVVLLRYFNPVGAHKSGLIGEDPKGVPNNLMPYVSQVAIGKLPVLTIYGDQFDTVDGTGVRDYIHVVDLAKGHVKAFDRIKTVGNIGTEIYNLGTGVGYSVRQMVDALKKVSGRDIPVKIGVPRPGDVASVYCDPSLAQEKLGWRAETGLEEMCADLWNWQTKNPQGFSA	not soluble
MGSDKIHHHHHHMALKGKGQAKSPNVDDNPQLGLESEIPVAPRSKRQTRQAEEVQAKDPYLDSVKELDDVLLKFKKYSKSMSSIENKVFSSSGGCFKSKNERVNAYSFTCSSFADKIEEYSYDPANSFPYKRGVKLVLKESSIYVEVGADTDMYGICVDVCEFSSTAYVLPITNNFEGYLVTRNPSIKMGEILDINNNGVIIKAGGGPPTVINAYALSDSFTINFAPEDEHQDQARYPKQEYSINLIKVAIFGNRGLEKTVTPEAGG	not soluble
MISVCIATYNGEKYLAEQLDSILLQVSEEDELIISDDGSTDHTLEILRTYAANYPQIQLLQGPGQGVIANFAFALTHTKGEVIFLADQDDVWLPNKVTTVTEYFETHPDIQVVISDLKIVDADLQVTNPSYFKFRKVKPGFWRNAIKSGYIGAGMAFRQEMKNVILPIPPEVPMHDMWIGLLAARKKQTGLIKEPLVLYRRHGANVSPIITKTSFQQKLNWRVNLLKALHQRLKEQRLEHHHHHH	soluble
MGKLFGTDGVRGIVNKELTPELVLKLSKAIGTFFGKNSKILVGRDVRAGGDMLVKIVEGGLLSVGVEVYDGGMAPTPALQYAVKTLGYDGGVVITASHNPAPYNGIKVVDKDGIEIRREKENEIEDLFFTERFNTIEWSSLTTEVKREDRVISTYVNGILSHVDIEKIKKKNYKVLIDPANSVGALSTPLVARALGCKIYTINGNLDPLFSARQPEPTFDSLKETAEVVKTLKVDLGVAHDGDADRAIFIDSEGRVQWGDRSGTLLSYWASVKNPKAIKKIVTAVSSSSLVEEYLSKYNIQVDWTKVGSVDIAHKVADENALAGFEENGGFMYPPHQYVRDGAMSFALMLELLANENVSSAELFDRLPKYYLVKTKVDLKPGLMVEEIYKKILEVYSTSSVKAITIDGVKIIGKDFWFLVRKSGTEPIIRIMAEAKDENVANNLVNELKKIVEGK	soluble
MTDIGAPVTVQVAVDPPYPVVIGTGLLDELEDLLADRHKVAVVHQPGLAETAEEIRKRLAGKGVDAHRIEIPDAEAGKDLPVVGFIWEVLGRIGIGRKDALVSLGGGAATDVAGFAAATWLRGVSIVHLPTTLLGMVDAAVGGKTGINTDAGKNLVGAFHQPLAVLVDLATLQTLPRDEMICGMAEVVKAGFIADPVILDLIEADPQAALDPAGDVLPELIRRAITVKAEVVAADEKESELREILNYGHTLGHAIERRERYRWRHGAAVSVGLVFAAELARLAGRLDDATAQRHRTILSSLGLPVSYDPDALPQLLEIMAGDKKTRAGVLRFVVLDGLAKPGRMVGPDPGLLVTAYAGVCAP	not soluble
TADVRTAENMGVRAYTVATAITFQGSGSYRGERWVDSADIIRQIESLSAEMEPAVAKIGLIRDSDTLSLVVDCLKKVFPSIRIVWDPVLRASADSSAGQADRFNLEDITALSRIDFITPNLPEARHLLGCEPDDETLLDFYRRSGVGLVLKGGHAGESVVTDRIVYDGRCEALRLLRGGTGKHGTGCAHSTAFAAALALEQEPFTAAGMAQLYVSRLRERASGLLAMHKDLPVDPVVR	not soluble
